Source: the supplement of paper PMC5998384

Assays:
HeLa Kyoto [1] = test: solubility in G1/S (NP-40 vs SDS abundance) (log2 ratio); higher = more soluble; conditions: cell cycle stage: G1/S
HeLa Kyoto [2] = test: solubility change mitosis vs G1/S (difference of NP-40 vs SDS log2 ratios) (log2 ratio difference); higher = more soluble in mitosis
HeLa Kyoto [3] = test: melting temperature (median over replicates), in situ; higher = more thermally stable
HeLa Kyoto [4] = test: thermal stability score vs G1/S (z-score of summed log2 fold changes over temperatures); higher = more thermally stable than in G1/S
[5] = cell cycle stage: early G1 (4.5 h after nocodazole release)
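For melting temperature (median over replicates), in situ in this document: HeLa Kyoto cells synchronized by double thymidine or nocodazole block, proteins quantified by TMT10plex mass spectrometry, three independent biological replicates.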
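For solubility change mitosis vs G1/S (difference of NP-40 vs SDS log2 ratios) in this document: synchronized HeLa Kyoto cells (double thymidine block for G1/S, nocodazole release for mitosis), protein amounts in NP-40 versus SDS lysates quantified by mass spectrometry, three biological replicates.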
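For solubility in G1/S (NP-40 vs SDS abundance) in this document: HeLa Kyoto cells arrested at G1/S by double thymidine block, proteins quantified by TMT10plex mass spectrometry in mild NP-40 versus SDS extracts, three biological replicates.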
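For thermal stability score vs G1/S (z-score of summed log2 fold changes over temperatures) in this document: synchronized HeLa Kyoto cells, proteins quantified by TMT10plex mass spectrometry, three biological replicates, mitosis taken 0.5 h after nocodazole release, G1/S directly after double thymidine block.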

Sequence	solubility in G1/S (log2) (HeLa Kyoto [1])	solubility change mitosis (log2) (HeLa Kyoto [2])	melting temperature (HeLa Kyoto [3]; cell cycle stage: G1/S) [°C]	melting temperature (HeLa Kyoto [3]; cell cycle stage: mitosis) [°C]	thermal stability score (HeLa Kyoto [4]; [5])	thermal stability score (HeLa Kyoto [4]; cell cycle stage: mitosis)
MEEGHGLDLTYITERIIAVSFPAGCSEESYLHNLQEVTRMLKSKHGDNYLVLNLSEKRYDLTKLNPKIMDVGWPELHAPPLDKMCTICKAQESWLNSNLQHVVVIHCRGGKGRIGVVISSYMHFTNVSASADQALDRFAMKKFYDDKVSALMQPSQKRYVQFLSGLLSGSVKMNASPLFLHFVILHGTPNFDTGGVCRPFLKLYQAMQPVYTSGIYNVGPENPSRICIVIEPAQLLKGDVMVKCYHKKYRSATRDVIFRLQFHTGAVQGYGLVFGKEDLDNASKDDRFPDYGKVELVFSATPEKIQGSEHLYNDHGVIVDYNTTDPLIRWDSYENLSADGEVLHTQGPVDGSLYAKVRKKSSSDPGIPGGPQAIPATNSPDHSDHTLSVSSDSGHSTASARTDKTEERLAPGTRRGLSAQEKAELDQLLSGFGLEDPGSSLKEMTDARSKYSGTRHVVPAQVHVNGDAALKDRETDILDDEMPHHDLHSVDSLGTLSSSEGPQSAHLGPFTCHKSSQNSLLSDGFGSNVGEDPQGTLVPDLGLGMDGPYERERTFGSREPKQPQPLLRKPSVSAQMQAYGQSSYSTQTWVRQQQMVVAHQYSFAPDGEARLVSRCPADNPGLVQAQPRVPLTPTRGTSSRVAVQRGVGSGPHPPDTQQPSPSKAFKPRFPGDQVVNGAGPELSTGPSPGSPTLDIDQSIEQLNRLILELDPTFEPIPTHMNALGSQANGSVSPDSVGGGLRASSRLPDTGEGPSRATGRQGSSAEQPLGGRLRKLSLGQYDNDAGGQLPFSKCAWGKAGVDYAPNLPPFPSPADVKETMTPGYPQDLDIIDGRILSSKESMCSTPAFPVSPETPYVKTALRHPPFSPPEPPLSSPASQHKGGREPRSCPETLTHAVGMSESPIGPKSTMLRADASSTPSFQQAFASSCTISSNGPGQRRESSSSAERQWVESSPKPMVSLLGSGRPTGSPLSAEFSGTRKDSPVLSCFPPSELQAPFHSHELSLAEPPDSLAPPSSQAFLGFGTAPVGSGLPPEEDLGALLANSHGASPTPSIPLTATGAADNGFLSHNFLTVAPGHSSHHSPGLQGQGVTLPGQPPLPEKKRASEGDRSLGSVSPSSSGFSSPHSGSTISIPFPNVLPDFSKASEAASPLPDSPGDKLVIVKFVQDTSKFWYKADISREQAIAMLKDKEPGSFIVRDSHSFRGAYGLAMKVATPPPSVLQLNKKAGDLANELVRHFLIECTPKGVRLKGCSNEPYFGSLTALVCQHSITPLALPCKLLIPERDPLEEIAESSPQTAANSAAELLKQGAACNVWYLNSVEMESLTGHQAIQKALSITLVQEPPPVSTVVHFKVSAQGITLTDNQRKLFFRRHYPVNSVIFCALDPQDRKWIKDGPSSKVFGFVARKQGSATDNVCHLFAEHDPEQPASAIVNFVSKVMIGSPKKV [TNS3]	0.127	-0.126	48	49.8	1.68	3.85
MEEKLKKTKIIFVVGGPGSGKGTQCEKIVQKYGYTHLSTGDLLRSEVSSGSARGKKLSEIMEKGQLVPLETVLDMLRDAMVAKVNTSKGFLIDGYPREVQQGEEFERRIGQPTLLLYVDAGPETMTQRLLKRGETSGRVDDNEETIKKRLETYYKATEPVIAFYEKRGIVRKVNAEGSVDSVFSQVCTHLDALK [AK1]	0.524	-0.0547	50.4	51	1.73	1.88
MEETMKLATMEDTVEYCLFLIPDESRDSDKHKEILQKYIERIITRFAPMLVPYIWQNQPFNLKYKPGKGGVPAHMFGVTKFGDNIEDEWFIVYVIKQITKEFPELVARIEDNDGEFLLIEAADFLPKWLDPENSTNRVFFCHGELCIIPAPRKSGAESWLPTTPPTIPQALNIITAHSEKILASESIRAAVNRRIRGYPEKIQASLHRAHCFLPAGIVAVLKQRPRLVAAAVQAFYLRDPIDLRACRVFKTFLPETRIMTSVTFTKCLYAQLVQQRFVPDRRSGYRLPPPSDPQYRAHELGMKLAHGFEILCSKCSPHFSDCKKSLVTASPLWASFLESLKKNDYFKGLIEGSAQYRERLEMAENYFQLSVDWPESSLAMSPGEEILTLLQTIPFDIEDLKKEAANLPPEDDDQWLDLSPDQLDQLLQEAVGKKESESVSKEEKEQNYDLTEVSESMKAFISKVSTHKGAELPREPSEAPITFDADSFLNYFDKILGPRPNESDSDDLDDEDFECLDSDDDLDFETHEPGEEASLKGTLDNLKSYMAQMDQELAHTCISKSFTTRNQVEPVSQTTDNNSDEEDSGTGESVMAPVDVDLNLVSNILESYSSQAGLAGPASNLLQSMGVQLPDNTDHRPTSKPTKN [ECD]	0.116	-0.113	50.8	50	0.346	0.595
MEFPGGNDNYLTITGPSHPFLSGAETFHTPSLGDEEFEIPPISLDSDPSLAVSDVVGHFDDLADPSSSQDGSFSAQYGVQTLDMPVGMTHGLMEQGGGLLSGGLTMDLDHSIGTQYSANPPVTIDVPMTDMTSGLMGHSQLTTIDQSELSSQLGLSLGGGTILPPAQSPEDRLSTTPSPTSSLHEDGVEDFRRQLPSQKTVVVEAGKKQKAPKKRKKKDPNEPQKPVSAYALFFRDTQAAIKGQNPNATFGEVSKIVASMWDSLGEEQKQVYKRKTEAAKKEYLKALAAYKDNQECQATVETVELDPAPPSQTPSPPPMATVDPASPAPASIEPPALSPSIVVNSTLSSYVANQASSGAGGQPNITKLIITKQMLPSSITMSQGGMVTVIPATVVTSRGLQLGQTSTATIQPSQQAQIVTRSVLQAAAAAAAAASMQLPPPRLQPPPLQQMPQPPTQQQVTILQQPPPLQAMQQPPPQKVRINLQQQPPPLQIKSVPLPTLKMQTTLVPPTVESSPERPMNNSPEAHTVEAPSPETICEMITDVVPEVESPSQMDVELVSGSPVALSPQPRCVRSGCENPPIVSKDWDNEYCSNECVVKHCRDVFLAWVASRNSNTVVFVK [TOX4]	-0.562	0.0879	50.6	53	0.423	0.887
MEFVKCLGHPEEFYNLVRFRIGGKRKVMPKMDQDSLSSSLKTCYKYLNQTSRSFAAVIQALDGEMRNAVCIFYLVLRALDTLEDDMTISVEKKVPLLHNFHSFLYQPDWRFMESKEKDRQVLEDFPTISLEFRNLAEKYQTVIADICRRMGIGMAEFLDKHVTSEQEWDKYCHYVAGLVGIGLSRLFSASEFEDPLVGEDTERANSMGLFLQKTNIIRDYLEDQQGGREFWPQEVWSRYVKKLGDFAKPENIDLAVQCLNELITNALHHIPDVITYLSRLRNQSVFNFCAIPQVMAIATLAACYNNQQVFKGAVKIRKGQAVTLMMDATNMPAVKAIIYQYMEEIYHRIPDSDPSSSKTRQIISTIRTQNLPNCQLISRSHYSPIYLSFVMLLAALSWQYLTTLSQVTEDYVQTGEH [FDFT1]	-0.184	-0.0823	52.2	51.4	1.39	0.889
MEGAGYRVVFEKGGVYLHTSAKKYQDRDSLIAGVIRVVEKDNDVLLHWAPVEEAGDSTQILFSKKDSSGGDSCASEEEPTFDPGYEPDWAVISTVRPQLCHSEPTRGAEPSCPQGSWAFSVSLGELKSIRRSKPGLSWAYLVLVTQAGGSLPALHFHRGGTRALLRVLSRYLLLASSPQDSRLYLVFPHDSSALSNSFHHLQLFDQDSSNVVSRFLQDPYSTTFSSFSRVTNFFRGALQPQPEGAASDLPPPPDDEPEPGFEVISCVELGPRPTVERGPPVTEEEWARHVGPEGRLQQVPELKNRIFSGGLSPSLRREAWKFLLGYLSWEGTAEEHKAHIRKKTDEYFRMKLQWKSVSPEQERRNSLLHGYRSLIERDVSRTDRTNKFYEGPENPGLGLLNDILLTYCMYHFDLGYVQGMSDLLSPILYVIQNEVDAFWCFCGFMELVQGNFEESQETMKRQLGRLLLLLRVLDPLLCDFLDSQDSGSLCFCFRWLLIWFKREFPFPDVLRLWEVLWTGLPGPNLHLLVACAILDMERDTLMLSGFGSNEILKHINELTMKLSVEDVLTRAEALHRQLTACPELPHNVQEILGLAPPAEPHSPSPTASPLPLSPTRAPPTPPPSTDTAPQPDSSLEILPEEEDEGADS [TBC1D17]	-0.0906	-0.0875	51.4	50.7	-0.527	-0.608
MEGCVSNLMVCNLAYSGKLEELKESILADKSLATRTDQDSRTALHWACSAGHTEIVEFLLQLGVPVNDKDDAGWSPLHIAASAGRDEIVKALLGKGAQVNAVNQNGCTPLHYAASKNRHEIAVMLLEGGANPDAKDHYEATAMHRAAAKGNLKMIHILLYYKASTNIQDTEGNTPLHLACDEERVEEAKLLVSQGASIYIENKEEKTPLQVAKGGLGLILKRMVEG [PSMD10]	0.145	0.136	48.5	49.8	0.248	1.31
MEGDAVEAIVEESETFIKGKERKTYQRRREGGQEEDACHLPQNQTDGGEVVQDVNSSVQMVMMEQLDPTLLQMKTEVMEGTVAPEAEAAVDDTQIITLQVVNMEEQPINIGELQLVQVPVPVTVPVATTSVEELQGAYENEVSKEGLAESEPMICHTLPLPEGFQVVKVGANGEVETLEQGELPPQEDPSWQKDPDYQPPAKKTKKTKKSKLRYTEEGKDVDVSVYDFEEEQQEGLLSEVNAEKVVGNMKPPKPTKIKKKGVKKTFQCELCSYTCPRRSNLDRHMKSHTDERPHKCHLCGRAFRTVTLLRNHLNTHTGTRPHKCPDCDMAFVTSGELVRHRRYKHTHEKPFKCSMCDYASVEVSKLKRHIRSHTGERPFQCSLCSYASRDTYKLKRHMRTHSGEKPYECYICHARFTQSGTMKMHILQKHTENVAKFHCPHCDTVIARKSDLGVHLRKQHSYIEQGKKCRYCDAVFHERYALIQHQKSHKNEKRFKCDQCDYACRQERHMIMHKRTHTGEKPYACSHCDKTFRQKQLLDMHFKRYHDPNFVPAAFVCSKCGKTFTRRNTMARHADNCAGPDGVEGENGGETKKSKRGRKRKMRSKKEDSSDSENAEPDLDDNEDEEEPAVEIEPEPEPQPVTPAPPPAKKRRGRPPGRTNQPKQNQPTAIIQVEDQNTGAIENIIVEVKKEPDAEPAEGEEEEAQPAATDAPNGDLTPEMILSMMDR [CTCF]	-0.451	0.0343	55.5	54.4	-1.57	-1.93
MEGGLADGEPDRTSLLGDSKDVLGPSTVVANSDESQLLTPGKMSQRQGKEAYPTPTKDLHQPSLSPASPHSQGFERGKEDISQNKDESSLSMSKSKSESKLYNGSEKDSSTSSKLTKKESLKVQKKNYREEKKRATKELLSTITDPSVIVMADWLKIRGTLKSWTKLWCVLKPGVLLIYKTQKNGQWVGTVLLNACEIIERPSKKDGFCFKLFHPLEQSIWAVKGPKGEAVGSITQPLPSSYLIIRATSESDGRCWMDALELALKCSSLLKRTMIREGKEHDLSVSSDSTHVTFYGLLRANNLHSGDNFQLNDSEIERQHFKDQDMYSDKSDKENDQEHDESDNEVMGKSEESDTDTSERQDDSYIEPEPVEPLKETTYTEQSHEELGEAGEASQTETVSEENKSLIWTLLKQVRPGMDLSKVVLPTFILEPRSFLDKLSDYYYHADFLSEAALEENPYFRLKKVVKWYLSGFYKKPKGLKKPYNPILGETFRCLWIHPRTNSKTFYIAEQVSHHPPISAFYVSNRKDGFCLSGSILAKSKFYGNSLSAILEGEARLTFLNRGEDYVMTMPYAHCKGILYGTMTLELGGTVNITCQKTGYSAILEFKLKPFLGSSDCVNQISGKLKLGKEVLATLEGHWDSEVFITDKKTDNSEVFWNPTPDIKQWRLIRHTVKFEEQGDFESEKLWQRVTRAINAKDQTEATQEKYVLEEAQRQAARDRKTKNEEWSCKLFELDPLTGEWHYKFADTRPWDPLNDMIQFEKDGVIQTKVKHRTPMVSVPKMKHKPTRQQKKVAKGYSSPEPDIQDSSGSEAQSVKPSTRRKKGIELGDIQSSIESIKQTQEEIKRNIMALRNHLVSSTPATDYFLQQKDYFIIFLLILLQVIINFMFK [OSBPL8]	-0.118	-0.172	49.8	50.9	0.167	0.896
